Changes are numbered by the printed parent chain. Each block holds one binder with its values, some of them ahead of it.
Columns and labels:
[1] = target: T1, NY-ESO-1 peptide on HLA-B*35:03 (human); test: killing
T1 peptide: MPFATPMEA

[2] = target: T2, NY-ESO-1 peptide on HLA-B*35:03 (human); test: killing
T2 peptide: MPFATPMEAEL

[3] = target: T3, KRAS Q61H peptide on HLA-A*01:01 (human); test: IFNγ ELISPOT; peptide titration (1 µM to 0.1 nM) on HLA-A*01:01-transfected K562; full-length, on cells
T3 peptide: ILDTAGHEEY

[4] = target: T4, MAGE-A3 peptide on HLA-A*01:01 (human); test: multimer staining
T4 peptide: EVDPIGHLY

[5] = target: T5, MAGE-A3 peptide on HLA-DRB1*11:01 (human); test: cytokine release
T5 peptide: TSYVKVLHHMVKISG

[6] = target: T6, NY-ESO-1 peptide on HLA-A*02:01 (human); test: killing
T6 peptide: SLLMWITQC

[7] = target: T4, MAGE-A3 peptide on HLA-A*01:01; test: cytokine release
[8] = target: T7, MAGE-A3 peptide on HLA-DRB1*13:02 (human); test: cytokine release
T7 peptide: TSYVKVLHHMVKISG

[9] = target: T8, NY-ESO-1 peptide on HLA-C*03:04 (human); test: multimer staining
T8 peptide: FATPMEAEL

[10] = target: NY-ESO-1 peptide on HLA-B*40:01 (human); test: killing

B1: TCRCD8-NY#101 (TCR, V domains shown)
Valpha: AQTVTQSQPEMSVQEAETVTLSCTYDTSESDYYLFWYKQPPSRQMILVIRQEAYKQQNATENRFSVNFQKAAKSFSLKISDSQLGDAAMYFCAYRSDAGGTSYGKLTFGQGTILTVHP
Vbeta: ETGVTQSPTHLIKTRGQQVTLRCSSQSGHNTVSWYQQALGQGPQFIFQYYREEENGRGNFPPRFSGLQFPNYSSELNVNALELDDSALYLCASSPRTGGAGNTIYFGEGSWLTVV
binding result [1]: recognises

B2: TCRCD8-NY#99 (TCR, V domains shown)
Valpha: KQEVTQIPAALSVPEGENLVLNCSFTDSAIYNLQWFRQDPGKGLTSLLLIQSSQREQTSGRLNASLDKSSGRSTLYIAASQPGDSATYLCAPNDYKLSFGAGTTVTVRA
Vbeta: KAGVTQTPRYLIKTRGQQVTLSCSPISGHRSVSWYQQTPGQGLQFLFEYFSETQRNKGNFPGRFSGRQFSNSRSEMNVSTLELGDSALYLCASSFSSDNEQFFGPGTRLTVL
binding result [2]: recognises

B8: TCRCD8-EL28-NYE #2 (TCR, V domains shown)
Valpha: SQELEQSPQSLIVQEGKNLTINCTSSKTLYGLYWYKQKYGEGLIFLMMLQKGGEEKSHEKITAKLDEKKQQSSLHITASQPSHAGIYLCGADMLDYQKVTFGIGTKLQVIP
Vbeta: DAGVIQSPRHEVTEMGQEVTLRCKPISGHDYLFWYRQTMMRGLELLIYFNNNVPIDDSGMPEDRFSAKMPNASFSTLKIQPSEPRDSAVYFCASRRGGSEQYFGPGTRLTVT
binding result [6]: recognises

B10: TCRCD8-EL8-LM7 #1 (TCR, V domains shown)
Valpha: AQKITQTQPGMFVQEKEAVTLDCTYDTSDPSYGLFWYKQPSSGEMIFLIYQGSYDQQNATEGRYSLNFQKARKSANLVISASQLGDSAMYFCAMREGQDSSYKLIFGSGTRLLVRP
Vbeta: DSGVTQTPKHLITATGQRVTLRCSPRSGDLSVYWYQQSLDQGLQFLIQYYNGEERAKGNILERFSAQQFPDLHSELNLSSLELGDSALYFCASSVLGPNTEAFFGQGTRLTVV
minimal recognised peptide concentration [3]: 10 nM

B14: TCRCD8-53-02-NY #109 (TCR, V domains shown)
Valpha: GQQVMQIPQYQHVQEGEDFTTYCNSSTTLSNIQWYKQRPGGHPVFLIQLVKSGEVKKQKRLTFQFGEAKKNSSLHITATQTTDVGTYFCADNAGNMLTFGGGTRLMVKP
Vbeta: GAVVSQHPSWVICKSGTSVKIECRSLDFQATTMFWYRQFPKQSLMLMATSNEGSKATYEQGVEKDKFLINHASLTLSTLTVTSAHPEDSSFYICSARDPGRNYGYTFGSGTRLTVV
binding result [10]: recognises

B15: TCRCD8-53-02-NY #110 (TCR, V domains shown)
Valpha: B14 Valpha with A90G
Vbeta: B14 Vbeta with P99E, G100D, N102P
binding result [10]: recognises

B16: TCRCD8-NY#102 (TCR, V domains shown)
Valpha: AQSVAQPEDQVNVAEGNPLTVKCTYSVSGNPYLFWYVQYPNRGLQFLLKYITGDNLVKGSYGFEAEFNKSQTSFHLKKPSALVSDSALYFCAVRDIEVVNAGNMLTFGGGTRLMVKP
Vbeta: ETGVTQSPTHLIKTRGQQVTLRCSSQSGHNTVSWYQQALGQGPQFIFQYYREEENGRGNFPPRFSGLQFPNYSSELNVNALELDDSALYLCASTDRVRYEQFFGPGTRLTVL
binding result [2]: recognises

B17: TCRCD8-NY#100 (TCR, V domains shown)
Valpha: SQQGEEDPQALSIQEGENATMNCSYKTSINNLQWYRQNSGRGLVHLILIRSNEREKHSGRLRVTLDTSKKSSSLLITASRAADTASYFCATDSNDYKLSFGAGTTVTVRA
Vbeta: GAGVSQSPRYKVTKRGQDVALRCDPISGHVSLYWYRQALGQGPEFLTYFNYEAQQDKSGLPNDRFSAERPEGSISTLTIQRTEQRDSAMYRCASSWGGELFFGEGSRLTVL
binding result [2]: recognises

Other lines, results leading:

minimal recognised peptide concentration [3]: 10 nM
B3: TCRCD8-EL8-LM7 #4 (TCR, V domains shown)
Valpha: AQKVTQAQTEISVVEKEDVTLDCVYETRDTTYYLFWYKQPPSGELVFLIRRNSFDEQNEISGRYSWNFQKSTSSFNFTITASQVVDSAVYFCALSNAGGTSYGKLTFGQGTILTVHP
Vbeta: EAQVTQNPRYLITVTGKKLTVTCSQNMNHEYMSWYRQDPGLGLRQIYYSMNVEVTDKGDVPEGYKVSRKEKRNFPLILESPSPNQTSLYFCASSRRLPPPYGYTFGSGTRLTVV

minimal recognised peptide concentration [3]: 10 nM
B4: TCRCD8-EL8-LM7 #7 (TCR, V domains shown)
Valpha: AQKVTQAQTEISVVEKEDVTLDCVYETRDTTYYLFWYKQPPSGELVFLIRRNSFDEQNEISGRYSWNFQKSTSSFNFTITASQVVDSAVYFCALSESSNTGKLIFGQGTTLQVKP
Vbeta: B3 Vbeta with L97E

binding result [4]: recognises
B5: TCRCD8-MA3#7 (TCR, V domains shown)
Valpha: ELKVEQNPLFLSMQEGKNYTIYCNYSTTSDRLYWYRQDPGKSLESLFVLLSNGAVKQEGRLMASLDTKARLSTLHITAAVHDLSATYFCAEPNTDKLIFGTGTRLQVFP
Vbeta: DAMVIQNPRYQVTQFGKPVTLSCSQTLNHNVMYWYQQKSSQAPKLLFHYYDKDFNNEADTPDNFQSRRPNTSFCFLDIRSPGLGDTAMYLCATNYDRGYEQYFGPGTRLTVT

binding result [4]: recognises
B6: TCRCD8-MA3#8 (TCR, V domains shown)
Valpha: QKEVEQNSGPLSVPEGAIASLNCTYSDRGSQSFFWYRQYSGKSPELIMFIYSNGDKEDGRFTAQLNKASQYVSLLIRDSQPSDSATYLCAVWATGNQFYFGTGTSLTVIP
Vbeta: B5 Vbeta with N94S, Y95F

binding result [5]: recognises
B7: TCRCD4-MA3#9 (TCR, V domains shown)
Valpha: GNSVTQMEGPVTLSEEAFLTINCTYTATGYPSLFWYVQYPGEGLQLLLKATKADDKGSNKGFEATYRKETTSFHLEKGSVQVSDSAVYFCALSDPNNQGGKLIFGQGTELSVKP
Vbeta: DTAVSQTPKYLVTQMGNDKSIKCEQNLGHDTMYWYKQDSKKFLKIMFSYNNKELIINETVPNRFSPKSPDKAHLNLHINSLELGDSAVYFCASSQVRGTTEAFFGQGTRLTVV

binding result [4]: recognises
B9: TCRCD8-MA3#10 (TCR, V domains shown)
Valpha: RKEVEQDPGPFNVPEGATVAFNCTYSNSASQSFFWYRQDCRKEPKLLMSVYSSGNEDGRFTAQLNRASQYISLLIRDSKLSDSATYLCVVNERNSGYALNFGKGTSLLVTP
Vbeta: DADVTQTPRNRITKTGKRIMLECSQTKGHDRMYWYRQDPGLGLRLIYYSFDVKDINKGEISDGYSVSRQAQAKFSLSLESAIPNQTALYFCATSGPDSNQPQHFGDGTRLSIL

binding result [7]: recognises
B11: TCRCD8-C1-40-MA3 #1 (TCR, V domains shown)
Valpha: GQQLNQSPQSMFIQEGEDVSMNCTSSSIFNTWLWYKQEPGEGPVLLIALYKAGELTSNGRLTAQFGITRKDSFLNISASIPSDVGIYFCAGQLRYGGATNKLIFGTGTLLAVQP
Vbeta: B10 Vbeta with Q48H, L96G, P98A, N99S, T100Y, A102Q, F103Y, Q106P, V113T

binding result [8]: recognises
B12: TCRCD4-MA3#5 (TCR, V domains shown)
Valpha: AQSVTQLGSHVSVSEGALVLLRCNYSSSVPPYLFWYVQYPNQGLQLLLKYTSAATLVKGINGFEAEFKKSETSFHLTKPSAHMSDAAEYFCAVSDGGATNKLIFGTGTLLAVQP
Vbeta: DGGITQSPKYLFRKEGQNVTLSCEQNLNHDAMYWYRQDPGQGLRLIYYSQIVNDFQKGDIAEGYSVSREKKESFPLTVTSAQKNPTAFYLCASSSGGRASFTQYFGPGTRLTVL

binding result [9]: recognises
B13: TCRCD8-53-02-NY #107 (TCR, V domains shown)
Valpha: GQNIDQPTEMTATEGAIVQINCTYQTSGFNGLFWYQQHAGEAPTFLSYNVLDGLEEKGRFSSFLSRSKGYSYLLLKELQMKDSASYLCAVRLGDAGNMLTFGGGTRLMVKP
Vbeta: DSGVTQTPKHLITATGQRVTLRCSPRSGDLSVYWYQQSLDQGLQFLIQYYNGEERAKGNILERFSAQQFPDLHSELNLSSLELGDSALYFCASSVGRGMNTEAFFGQGTRLTVV

Source: patent US20230405046A1 (published 2023)
